# Assay results as given in article PMC12527917, “Regulation of kinesin-2 motility by its β-hairpin motif” (Nature Structural & Molecular Biology, 2025).
# B1: Kif3B (human kinesin-2 motor subunit), full length (natural protein, UniProt O15066 1-747, looked up)
# chain: MSKLKSSESVRVVVRCRPMNGKEKAASYDKVVDVDVKLGQVSVKNPKGTAHEMPKTFTFDAVYDWNAKQFELYDETFRPLVDSVLQGFNGTIFAYGQTGTGKTYTMEGIRGDPEKRGVIPNSFDHIFTHISRSQNQQYLVRASYLEIYQEEIRDLLSKDQTKRLELKERPDTGVYVKDLSSFVTKSVKEIEHVMNVGNQNRSVGATNMNEHSSRSHAIFVITIECSEVGLDGENHIRVGKLNLVDLAGSERQAKTGAQGERLKEATKINLSLSALGNVISALVDGKSTHIPYRDSKLTRLLQDSLGGNAKTVMVANVGPASYNVEETLTTLRYANRAKNIKNKPRVNEDPKDALLREFQEEIARLKAQLEKRSIGRRKRREKRREGGGSGGGGEEEEEEGEEGEEEGDDKDDYWREQQEKLEIEKRAIVEDHSLVAEEKMRLLKEKEKKMEDLRREKDAAEMLGAKIKAMESKLLVGGKNIVDHTNEQQKILEQKRQEIAEQKRREREIQQQMESRDEETLELKETYSSLQQEVDIKTKKLKKLFSKLQAVKAEIHDLQEEHIKERQELEQTQNELTRELKLKHLIIENFIPLEEKSKIMNRAFFDEEEDHWKLHPITRLENQQMMKRPVSAVGYKRPLSQHARMSMMIRPEARYRAENIVLLELDMPSRTTRDYEGPAIAPKVQAALDAALQDEDEIQVDASSFESTANKKSKARPKSGRKSGSSSSSSGTPASQLYPQSRGLVPK
# notes: Kif3B, human, synthesised gene, full-length subunit; source: Sf9 (baculovirus), coexpressed with Kif3A, purified (IgG Sepharose, TEV elution, SEC); not shown: ZZ, N-terminal, cleaved
# B2: Kif3B^ΔC156 (domain or fragment, human, UniProt O15066 1-591, looked up)
# chain: MSKLKSSESVRVVVRCRPMNGKEKAASYDKVVDVDVKLGQVSVKNPKGTAHEMPKTFTFDAVYDWNAKQFELYDETFRPLVDSVLQGFNGTIFAYGQTGTGKTYTMEGIRGDPEKRGVIPNSFDHIFTHISRSQNQQYLVRASYLEIYQEEIRDLLSKDQTKRLELKERPDTGVYVKDLSSFVTKSVKEIEHVMNVGNQNRSVGATNMNEHSSRSHAIFVITIECSEVGLDGENHIRVGKLNLVDLAGSERQAKTGAQGERLKEATKINLSLSALGNVISALVDGKSTHIPYRDSKLTRLLQDSLGGNAKTVMVANVGPASYNVEETLTTLRYANRAKNIKNKPRVNEDPKDALLREFQEEIARLKAQLEKRSIGRRKRREKRREGGGSGGGGEEEEEEGEEGEEEGDDKDDYWREQQEKLEIEKRAIVEDHSLVAEEKMRLLKEKEKKMEDLRREKDAAEMLGAKIKAMESKLLVGGKNIVDHTNEQQKILEQKRQEIAEQKRREREIQQQMESRDEETLELKETYSSLQQEVDIKTKKLKKLFSKLQAVKAEIHDLQEEHIKERQELEQTQNELTRELKLKHLIIENFI
# notes: Kif3B, human, 156 amino acids truncated from the C terminus (removes the Kif3B β-hairpin motif); also called Kif3B^Δ156; source: Sf9 (baculovirus), coexpressed with Kif3A^ΔC103, purified (IgG Sepharose, TEV elution, SEC); not shown: ZZ, N-terminal, cleaved
# B3: Kap3 (human) (natural protein, UniProt Q92845 1-792, looked up)
# chain: MQGEDARYLKRKVKGGNIDVHPSEKALIVHYEVEATILGEMGDPMLGERKECQKIIRLKSLNANTDITSLARKVVEECKLIHPSKLNEVEQLLYYLQNRRDSLSGKEKKEKSSKPKDPPPFEGMEIDEVANINDMDEYIELLYEDIPDKVRGSALILQLARNPDNLEELLLNETALGALARVLREDWKQSVELATNIIYIFFCFSSFSQFHGLITHYKIGALCMNIIDHELKRHELWQEELSKKKKAVDEDPENQTLRKDYEKTFKKYQGLVVKQEQLLRVALYLLLNLAEDTRTELKMRNKNIVHMLVKALDRDNFELLILVVSFLKKLSIFMENKNDMVEMDIVEKLVKMIPCEHEDLLNITLRLLLNLSFDTGLRNKMVQVGLLPKLTALLGNDNYKQIAMCVLYHISMDDRFKSMFAYTDCIPQLMKMLFECSDERIDLELISFCINLAANKRNVQLICEGNGLKMLMKRALKFKDPLLMKMIRNISQHDGPTKNLFIDYVGDLAAQISNDEEEEFVIECLGTLANLTIPDLDWELVLKEYKLVPYLKDKLKPGAAEDDLVLEVVIMIGTVSMDDSCAALLAKSGIIPALIELLNAQQEDDEFVCQIIYVFYQMVFHQATRDVIIKETQAPAYLIDLMHDKNNEIRKVCDNTLDIIAEYDEEWAKKIQSEKFRWHNSQWLEMVESRQMDESEQYLYGDDRIEPYIHEGDILERPDLFYNSDGLIASEGAISPDFFNDYHLQNGDVVGQHSFPGSLGMDGFGQPVGILGRPATAYGFRPDEPYYYGYGS
# notes: Kap3, human, synthesised gene; SNAPf labelled with SNAP-Cell TMR-Star in the TIRF colocalisation assay; No truncation is mentioned; probably the whole protein; source: Sf9 (baculovirus), purified (IgG Sepharose, TEV elution, SEC); not shown: ZZ, N-terminal, cleaved; SNAPf, N-terminal, kept
# Experiments:
# Details in all cases: both partners purified
# Kap3 (human) = molecular target: B3; assay: single-molecule TIRF colocalisation; Alexa-Fluor-647-labelled Kif3AB/C constructs on surface-attached microtubules (1 mM AMPPNP in Fig. 4c), TMR-labelled Kap3 at 1 nM, buffer B, 25 °C; fraction of Kif3A spots with Kap3 signal
# Kif3A^ΔC103 = molecular target: T1, Kif3A^ΔC103 (human, UniProt Q9Y496 1-596); assay: SEC; motor subunits coexpressed in Sf9, purified through the ZZ tag of Kif3B/C on IgG Sepharose, TEV elution, Superose 6 Increase 3.2/300 in buffer A (50 mM Tris-HCl pH 7.5, 150 mM K-acetate, 2 mM Mg-acetate, 5% glycerol, 1 mM DTT, 0.2 mM Mg-ATP); SDS-PAGE of peak fraction
# T1 construct: Kif3A, human, 103 amino acids truncated from the C terminus; also called Kif3A^Δ103; source: Sf9 (baculovirus), coexpressed with Kif3B constructs, purified (IgG Sepharose, TEV elution, SEC); not shown: SNAPf, C-terminal, kept
# T1 sequence (Q9Y496 1-596, stated change not applied): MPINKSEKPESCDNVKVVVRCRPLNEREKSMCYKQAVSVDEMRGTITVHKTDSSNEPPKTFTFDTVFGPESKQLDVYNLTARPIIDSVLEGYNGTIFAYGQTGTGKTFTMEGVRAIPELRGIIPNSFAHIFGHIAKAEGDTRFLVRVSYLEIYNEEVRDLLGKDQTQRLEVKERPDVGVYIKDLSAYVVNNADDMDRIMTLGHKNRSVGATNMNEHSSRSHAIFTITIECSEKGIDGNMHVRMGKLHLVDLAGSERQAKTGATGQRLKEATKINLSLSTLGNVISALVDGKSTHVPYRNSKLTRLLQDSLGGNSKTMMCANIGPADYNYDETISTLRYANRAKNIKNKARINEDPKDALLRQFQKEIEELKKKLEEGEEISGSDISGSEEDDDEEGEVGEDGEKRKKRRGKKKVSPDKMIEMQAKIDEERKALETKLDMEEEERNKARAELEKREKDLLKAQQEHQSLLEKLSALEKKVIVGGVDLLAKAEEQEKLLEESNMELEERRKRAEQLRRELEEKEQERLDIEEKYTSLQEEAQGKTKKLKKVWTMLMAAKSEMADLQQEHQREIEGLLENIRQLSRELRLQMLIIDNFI
# [1] = molecular target: T2, Kif3A–Kif3B^ΔC90 heterodimer (ΔInt3) (human, UniProt Q9Y496 1-699; O15066 1-657); assay: single-molecule TIRF colocalisation; Alexa-Fluor-647-labelled Kif3AB/C constructs on surface-attached microtubules (1 mM AMPPNP in Fig. 4c), TMR-labelled Kap3 at 1 nM, buffer B, 25 °C; fraction of Kif3A spots with Kap3 signal
# T2 construct: Kif3A, human, synthesised gene, full-length subunit; Kif3B, human, 90 amino acids truncated from the C terminus; source: Sf9 (baculovirus), coexpressed, purified (IgG Sepharose, TEV elution, SEC); not shown: SNAPf, C-terminal, kept; ZZ, N-terminal, cleaved
# T2 sequence (Q9Y496 whole entry, stated change not applied, the tested form may be a part, one chain of several): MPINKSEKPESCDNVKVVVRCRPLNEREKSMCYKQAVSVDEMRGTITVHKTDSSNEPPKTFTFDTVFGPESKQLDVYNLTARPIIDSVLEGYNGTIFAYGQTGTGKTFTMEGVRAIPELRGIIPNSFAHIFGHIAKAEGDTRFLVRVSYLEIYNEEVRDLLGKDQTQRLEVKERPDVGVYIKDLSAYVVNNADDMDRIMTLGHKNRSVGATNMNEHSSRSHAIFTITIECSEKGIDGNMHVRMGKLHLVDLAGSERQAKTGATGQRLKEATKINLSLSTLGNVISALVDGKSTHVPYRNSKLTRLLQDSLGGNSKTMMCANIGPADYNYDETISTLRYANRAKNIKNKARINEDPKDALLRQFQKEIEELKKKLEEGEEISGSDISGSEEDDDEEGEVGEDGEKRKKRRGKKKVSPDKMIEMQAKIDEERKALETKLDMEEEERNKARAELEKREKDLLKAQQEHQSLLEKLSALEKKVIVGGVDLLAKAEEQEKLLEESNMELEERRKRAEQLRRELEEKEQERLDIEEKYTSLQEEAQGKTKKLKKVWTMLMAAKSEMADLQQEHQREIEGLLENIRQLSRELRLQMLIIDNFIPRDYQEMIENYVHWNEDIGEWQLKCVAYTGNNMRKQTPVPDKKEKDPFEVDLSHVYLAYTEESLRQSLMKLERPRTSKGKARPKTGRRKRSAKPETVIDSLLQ
# [2] = molecular target: T3, Kif3A–Kif3B^ΔC114 heterodimer (ΔInt2+3) (human, UniProt Q9Y496 1-699; O15066 1-633); assay: as above
# T3 construct: Kif3A, human, synthesised gene, full-length subunit; Kif3B, human, 114 amino acids truncated from the C terminus; source: Sf9 (baculovirus), coexpressed, purified (IgG Sepharose, TEV elution, SEC); not shown: SNAPf, C-terminal, kept; ZZ, N-terminal, cleaved
# T3 sequence (Q9Y496 whole entry, stated change not applied, the tested form may be a part, one chain of several): as above
# [3] = molecular target: T4, Kif3A^ΔC89–Kif3B heterodimer (ΔInt1) (human, UniProt Q9Y496 1-610; O15066 1-747); assay: as above
# T4 construct: Kif3A, human, 89 amino acids truncated from the C terminus (within the β-hairpin motif); Kif3B, human, synthesised gene, full-length subunit; also called Kif3A^Δ89B; source: Sf9 (baculovirus), coexpressed, purified (IgG Sepharose, TEV elution, SEC); not shown: SNAPf, C-terminal, kept; ZZ, N-terminal, cleaved
# T4 sequence (Q9Y496 1-610, stated change not applied, one chain of several): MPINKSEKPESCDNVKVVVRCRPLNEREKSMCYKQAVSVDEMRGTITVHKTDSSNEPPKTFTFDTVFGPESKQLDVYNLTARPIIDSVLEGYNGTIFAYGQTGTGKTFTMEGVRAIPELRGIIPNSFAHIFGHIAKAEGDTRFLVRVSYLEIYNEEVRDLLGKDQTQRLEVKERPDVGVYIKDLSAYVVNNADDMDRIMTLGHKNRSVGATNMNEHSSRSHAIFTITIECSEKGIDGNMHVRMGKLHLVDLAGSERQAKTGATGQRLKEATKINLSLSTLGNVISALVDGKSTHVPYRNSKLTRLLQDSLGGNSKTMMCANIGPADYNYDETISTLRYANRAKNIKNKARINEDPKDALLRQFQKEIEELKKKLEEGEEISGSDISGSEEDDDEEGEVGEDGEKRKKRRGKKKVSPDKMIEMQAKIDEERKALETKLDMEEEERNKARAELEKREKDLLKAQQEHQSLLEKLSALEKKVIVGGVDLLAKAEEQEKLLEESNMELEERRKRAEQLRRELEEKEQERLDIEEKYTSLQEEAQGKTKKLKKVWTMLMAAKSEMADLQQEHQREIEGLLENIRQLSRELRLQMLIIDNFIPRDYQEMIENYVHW
# [4] = molecular target: T5, Kif3AB heterodimer, full length (human, UniProt Q9Y496 1-699; O15066 1-747); assay: as above
# T5 construct: Kif3A, human, synthesised gene, full-length subunit; Kif3B, human, synthesised gene, full-length subunit; SNAPf on Kif3A labelled with Alexa Fluor 647 in the TIRF assays; A Kif3A construct without SNAPf was also cloned; also called Kif3A–Kif3B; Kif3AB^WT; source: Sf9 (baculovirus), coexpressed, purified (IgG Sepharose, TEV elution, SEC); not shown: SNAPf, C-terminal, kept; ZZ, N-terminal, cleaved
# T5 sequence (Q9Y496 whole entry, one chain of several): as the sequence (Q9Y496 whole entry, stated change not applied, the tested form may be a part, one chain of several) above
binder,measurement,setting,value
B1,binding result,Kap3 (human),binds
B2,binding result,Kif3A^ΔC103,binds
B3,percent of Kif3AB molecules with colocalised Kap3,[1],62%
same,percent of Kif3AB molecules with colocalised Kap3,[2],50%
same,percent of Kif3AB molecules with colocalised Kap3,[3],26%
same,percent of Kif3AB molecules with colocalised Kap3,[4],82%
